Assay results published in US20110151541.

Molecular target: gelatin

B1: recombinant stem bromelain (protein)
chain: SRDEPNDPMMKRFEEWMAEYGRVYKDDDEKMRRFQIFKNNVKHIETFNSRNENSYTLGINQFTDMTKSEFVAQYTGVSLPLNIEREPVVSFDDVNISAVPQSIDWRDYGAVNEVKNQNPCGSCWSFAAIATVEGIYKIKTGYLVSLSEQEVLDCAVSYGCKGGWVNKAYDFIISNNGVTTEENYPYLAYQGTCNANSFPNSAYITGYSYVRRNDERSMMYAVSNQPIAALIDASENFQYYNGGVFSGPCGTSLNHAITIIGYGQDSSGTKYWIVRNSWGSSWGEGGYVRMARGVSSSSGVCGIAMAPLFPTLQSGANAEVIKMVSET
Diameter of halo zones (mm), Average: 9 mm
Diameter of halo zones (mm), Plate 1: 8 mm
Diameter of halo zones (mm), Plate 2: 10 mm
Diameter of halo zones (mm), Plate 3: 9 mm
